Experimental data reported in publication PMC9089897 (PLoS Pathogens, 2022).

Target: biotinylated avi-tagged SARS-CoV-2 (Wuhan) receptor binding domain (RBD) (SARS-CoV-2 (Wuhan strain), UniProt P0DTC2, biotin (avi-tagged RBD labeled with biotin, BirA500))
Test: BLI
Conditions: both partners purified

Binder	binding result
REGN10987 (antibody, V domains shown, also called Imdevimab) VH: QVQLVESGGGVVQPGRSLRLSCAASGFTFSNYAMYWVRQAPGKGLEWVAVISYDGSNKYYADSVKGRFTISRDNSKNTLYLQMNSLRTEDTAVYYCASGSDYGDYLLVYWGQGTLVTVSS VL: QSALTQPASVSGSPGQSITISCTGTSSDVGGYNYVSWYQQHPGKAPKLMIYDVSKRPSGVSNRFSGSKSGNTASLTISGLQSEDEADYYCNSLTSISTWVFGGGTKLTVL	binds
REGN10933 (antibody, V domains shown, also called Casirivimab) VH: QVQLVESGGGLVKPGGSLRLSCAASGFTFSDYYMSWIRQAPGKGLEWVSYITYSGSTIYYADSVKGRFTISRDNAKSSLYLQMNSLRAEDTAVYYCARDRGTTMVPFDYWGQGTLVTVSS VL: DIQMTQSPSSLSASVGDRVTITCQASQDITNYLNWYQQKPGKAPKLLIYAASNLETGVPSRFSGSGSGTDFTFTISGLQPEDIATYYCQQYDNLPLTFGGGTKVEIK	binds
